Measured values from publication PMC2684960.

Molecular target: T1, phospho-IRF3 (S386), endogenous (human (endogenous in SALE)), Q14653
T1 chain: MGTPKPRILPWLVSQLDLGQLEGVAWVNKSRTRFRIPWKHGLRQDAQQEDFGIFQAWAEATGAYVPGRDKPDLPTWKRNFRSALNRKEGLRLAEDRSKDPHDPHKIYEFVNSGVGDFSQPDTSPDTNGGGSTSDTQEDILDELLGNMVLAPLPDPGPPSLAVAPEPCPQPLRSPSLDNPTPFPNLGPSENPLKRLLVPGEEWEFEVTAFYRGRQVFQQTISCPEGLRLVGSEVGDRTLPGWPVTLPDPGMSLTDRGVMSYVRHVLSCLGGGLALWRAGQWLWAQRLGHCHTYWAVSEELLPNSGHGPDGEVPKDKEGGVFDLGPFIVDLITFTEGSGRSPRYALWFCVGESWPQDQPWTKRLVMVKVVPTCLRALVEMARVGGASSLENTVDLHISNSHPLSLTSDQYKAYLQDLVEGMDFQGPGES
Assay: native gel or EMSA
Conditions: remark: other sources report otherwise

B1: phospho-IRF3 (S386), endogenous, Q14653 1-427 (natural protein)
chain: MGTPKPRILPWLVSQLDLGQLEGVAWVNKSRTRFRIPWKHGLRQDAQQEDFGIFQAWAEATGAYVPGRDKPDLPTWKRNFRSALNRKEGLRLAEDRSKDPHDPHKIYEFVNSGVGDFSQPDTSPDTNGGGSTSDTQEDILDELLGNMVLAPLPDPGPPSLAVAPEPCPQPLRSPSLDNPTPFPNLGPSENPLKRLLVPGEEWEFEVTAFYRGRQVFQQTISCPEGLRLVGSEVGDRTLPGWPVTLPDPGMSLTDRGVMSYVRHVLSCLGGGLALWRAGQWLWAQRLGHCHTYWAVSEELLPNSGHGPDGEVPKDKEGGVFDLGPFIVDLITFTEGSGRSPRYALWFCVGESWPQDQPWTKRLVMVKVVPTCLRALVEMARVGGASSLENTVDLHISNSHPLSLTSDQYKAYLQDLVEGMDFQGPGES
modifications: here or on the partner: phosphoserine at 386; phosphoserine at 386
B1 was tested. Which stoichiometry N did it give?
The stoichiometry N was 2.
